Results from patent US20060062793A1 (published 2006).

How the values were obtained:
[1] = biological target: T1, prostate specific membrane antigen (PSMA) on LNCaP cells (human, UniProt Q04609 1-750); assay: not described
T1 construct: whole, on cells; Used for intact LNCaP cells, LNCaP membrane preparations and LNCaP tumour or prostate tissue sections; also called human PSMA; LNCap membrane preparation

[2] = biological target: T1, prostate specific membrane antigen …; assay: ELISA on plates coated with LNCaP membrane preparation
[3] = biological target: T1, prostate specific membrane antigen …; assay: ELISA on LNCaP membrane preparation, purified antibody, reference J415 chimeric antibody

T1 sequence (Q04609 whole entry): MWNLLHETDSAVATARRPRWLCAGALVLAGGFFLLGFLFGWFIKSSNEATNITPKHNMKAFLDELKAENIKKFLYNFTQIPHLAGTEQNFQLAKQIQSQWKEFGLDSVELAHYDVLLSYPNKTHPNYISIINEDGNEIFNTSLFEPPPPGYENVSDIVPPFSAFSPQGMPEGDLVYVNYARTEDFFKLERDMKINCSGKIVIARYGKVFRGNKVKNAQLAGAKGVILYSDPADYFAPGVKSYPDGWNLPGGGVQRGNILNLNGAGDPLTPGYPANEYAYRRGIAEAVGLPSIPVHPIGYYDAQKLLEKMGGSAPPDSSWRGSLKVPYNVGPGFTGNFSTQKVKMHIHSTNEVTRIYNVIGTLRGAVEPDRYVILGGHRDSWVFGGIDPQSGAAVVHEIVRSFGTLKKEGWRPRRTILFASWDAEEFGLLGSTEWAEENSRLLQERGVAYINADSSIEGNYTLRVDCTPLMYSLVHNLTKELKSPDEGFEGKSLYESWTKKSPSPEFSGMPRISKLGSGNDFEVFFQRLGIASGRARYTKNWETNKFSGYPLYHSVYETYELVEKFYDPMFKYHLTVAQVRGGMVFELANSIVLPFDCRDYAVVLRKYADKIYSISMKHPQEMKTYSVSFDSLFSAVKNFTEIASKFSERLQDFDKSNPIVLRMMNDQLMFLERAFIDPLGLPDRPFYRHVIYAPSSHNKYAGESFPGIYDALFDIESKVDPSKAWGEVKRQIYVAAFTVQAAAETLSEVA

B1: murine J533 monoclonal antibody (antibody, mouse IgG1, V domains shown)
VH: EVQLQQSGPELVKPGASVKMSCKASGYTFTGYVMHWVKQKPGQVLEWIGYINPYNDVTRYNGKFKGKATLTSDKYSSTAYMELSGLTSEDSAVYYCARGENWYYFDSWGRGATLTVSS
VL: DIVLTQSPASLAVSLGQRATISCRASESIDSYDNTFMHWYQQKPGQPPNLLIFRASILESGIPARFSGSGSGTDFTLTIYPVEADDVATYYCHQSIEDPYTFGGGTKLEIK
notes: Mouse IgG1 kappa, hybridoma ATCC HB-12127
binding result [1]: binds

B2: deimmunized J415 antibody, heavy chain version 4 with light chain version 5 (antibody, human IgG1, V domains shown)
VH: EVKLEESGGGLVQPGGSMKISCVASGFTFSNYWMNWVRQSPEKGLEWVAEIRSQSNNFATHYAESVKGRVIISRDDSKSSVYLQMNSLRAEDTAVYYCTRRWNNFWGQGTTVTVSS
VL: NIVMTQFPKSMSASAGERMTLTCKASENVGTYVSWYQQKPTQSPKMLIYGASNRFTGVPDRFSGSGSGTDFILTISSVQAEDLVDYYCGQSYTFPYTFGGGTKLEMK
notes: also called DIVH4/DIVK5; J415DIVH4/J415DIVK5
binding result [2]: binds

B3: J415 chimeric antibody (antibody, V domains shown)
VH: EVKLEESGGGLVQPGGSMKLSCVASGFTFSNYWMNWVRQSPEKGLEWVAEIRSQSNNFATHYAESVKGRVIISRDDSKSSVYLQMNNLRAEDTGIYYCTRRWNNFWGQGTTLTVSS
VL: NIVMTQFPKSMSISVGERVTLTCKASENVGTYVSWYQQKPEQSPKMLIYGASNRFTGVPDRFTGSGSATDFILTISSVQTEDLVDYYCGQSYTFPYTFGGGTKLEMK
notes: also called the chimeric
binding result [2]: binds

B4: deimmunized J415 antibody, heavy chain version 1 with light chain version 5 (antibody, human IgG1, V domains shown)
VH: EVKLEESGGGLVQPGGSMKISCKASGFTFSNYWMNWVRQTPEKGLEWVALIRSQSNNFATHYAESVKGRVIISRDDSKSSVYLQMNSLRAEDTAVYYCTRRWNNFWGQGTTVTVSS
VL: NIVMTQFPKSMSASAGERMTLTCKASENVGTYVSWYQQKPTQSPKMLIYGASNRFTGVPDRFSGSGSGTDFILTISSVQAEDLVDYYCGQSYTFPYTFGGGTKLEMK
notes: also called DIVH1/DIVK5; J415DIVH1 with DIVK5
fold less binding than the chimeric antibody [3]: 2 fold

B5: deimmunized J415 antibody, heavy chain version 2 with light chain version 5 (antibody, human IgG1, V domains shown)
VH: EVKLEESGGGLVQPGGSMKISCVASGFTFSNYWMNWVRQTPEKGLEWVALIRSQSNNFATHYAESVKGRVIISRDDSKSSVYLQMNSLRAEDTAVYYCTRRWNNFWGQGTTVTVSS
VL: NIVMTQFPKSMSASAGERMTLTCKASENVGTYVSWYQQKPTQSPKMLIYGASNRFTGVPDRFSGSGSGTDFILTISSVQAEDLVDYYCGQSYTFPYTFGGGTKLEMK
notes: also called DIVH2/DIVK5; J415DIVH2 with DIVK5
fold less binding than the chimeric antibody [3]: 2 fold

B6: murine J415 monoclonal antibody (antibody, mouse IgG1, V domains shown)
VH: EVKLEESGGGLVQPGGSMKLSCVASGFTFSNYWMNWVRQSPEKGLEWVAEIRSQSNNFATHYAESVKGRVIISRDDSKSSVYLQMNNLRAEDTGIYYCTRRWNNFWGQGTTLTVSS
VL: NIVMTQFPKSMSISVGERVTLTCKASENVGTYVSWYQQKPEQSPKMLIYGASNRFTGVPDRFTGSGSATDFILTISSVQTEDLVDYYCGQSYTFPYTFGGGTKLEMK
notes: Mouse IgG1 kappa, hybridoma ATCC HB-12109
binding result [1]: binds

B7: murine E99 monoclonal antibody (antibody, mouse IgG3, V domains shown)
VH: QVQLKESGPGLVASSQSLSITCTVSGFSLTAYGINWVRQPPGKGLEWLGVIWPDGNTDYNSTLKSRLNIFKDNSKNQVFLKMSSFQTDDTARYFCARDSYGNFKRGWFDFWGQGTTLTVSS
VL: NIVMTQSQKFMSTSPGDRVRVTCKASQNVGSDVAWYQAKPGQSPRILIYSTSYRYSGVPDRFTAYGSGTDFTLTITNVQSEDLTEYFCQQYNSYPLTFGAGTKLELK
binding result [1]: binds
